Results on 15 molecules are retold here after patent publication US20250163167A1 (SYNTHEKINE, published 2025).

The chains are these.
B1: IL10R binding molecule of SEQ ID NO: 270 (bispecific antibody)
chain: QVQLQESGGGSVQAGGSLRLSCAASGYTYSMYCMGWFRQAPGKEREGVAQINSDGSTSYADSVKGRFTISKDNAKNTLYLQMNSLKPEDTAMYYCAADSRVYGGSWYERLCGPYTYEYNYWGQGTQVTVSSGGGSQVQLQESGGGSVQAGGSLRLSCAASGYTYSSGCMGWFRQAPGKEREAVAAINSDGSTSYADSVKGRFTISKDNAKNTLYLQMNSLKPEDTAMYYCAAEPYCSGGYPRWSVAEFGYWGQGTQVTVSSASHHHHHH
B2: IL10R binding molecule of SEQ ID NO: 352 (bispecific antibody)
chain: QVQLQESGGGSVQTGGSLRLSCAASGYTYLRGCMGWFRQAPGKEREGVAVMDVVGDRRSYIDSVKGRFTISRDNAANSVYLQMDNLKPEDTAMYYCTAGPNCVGWRSGLDYWGQGTQVTVSSGGGSQVQLQESGGGSVQAGGSLRLSCGASGYTYSSYCMGWFRQVPGKEREGVAVIDSDGSTSYADSVKGRFTISKDNGKNTLYLQMNSLKPEDTAMYYCAADLGHYRPPCGVLYLGMDYWGKGTQVTVSSASHHHHHH
B3: IL10R binding molecule of SEQ ID NO: 267 (bispecific antibody)
chain: QVQLQESGGGSVQAGGSLRLSCAASRFTYSSYCMGWFRQAPGKEREGVASIDSDGSTSYTDSVKGRFTISKDNAKNTLYLQMNSLKPEDTAMYYCALDLMSTVVPGFCGFLLSAGMDYWGKGTQVTVSSGGGSQVQLQESGGGSVEAGGSLRLSCAASGYTHSSYCMGWFRQAPGKEREGVAAIDVDGSTTYADSVKGRFTISKDNAKNTLYLQMNSLKPEDTGMYYCAAEFADCSSNYFLPPGAVRYWGQGTQVTVSSASHHHHHH
B4: IL10R binding molecule of SEQ ID NO: 351 (bispecific antibody)
chain: QVQLQESGGGSVQTGGSLRLSCAASGYTYLRGCMGWFRQAPGKEREGVAVMDVVGDRRSYIDSVKGRFTISRDNAANSVYLQMDNLKPEDTAMYYCTAGPNCVGWRSGLDYWGQGTQVTVSSGGGSQVQLQESGGGSVQAGGSLRLSCTVSGYTYSSNCMGWFRQAPGKEREGVATIYTGGGNTYYADSVKGRFTISQDNAKNTVYLQMNNLKPEDTAMYYCAAEPLSRVYGGSCPTPTFDYWGQGTQVTVSSASHHHHHH
B5: IL10R binding molecule of SEQ ID NO: 266 (bispecific antibody)
chain: QVQLQESGGGSVQAGGSLRLSCAASRFTYSSYCMGWFRQAPGKEREGVASIDSDGSTSYTDSVKGRFTISKDNAKNTLYLQMNSLKPEDTAMYYCALDLMSTVVPGFCGFLLSAGMDYWGKGTQVTVSSGGGSQVQLQESGGGSVQAGGSLRLSCTVSRYTASVNYMGWFRQAPGKEREGVATIFTGAGTTYYANSVKGRFTISRDNAKNTAYLQMNSLKPEDTAIYYCAVDFRGGLLYRPAYEYTYRGQGTQVTVSSASHHHHHH
B6: IL10R binding molecule of SEQ ID NO: 256 (bispecific antibody)
chain: QVQLQESGGGSVQAGGSLRLSCAASRYLYSIDYMAWFRQSPGKEREPVAVIYTASGATFYPDSVKGRFTISQDNAKMTVYLQMNSLKSEDTAMYYCAAVRKTDSYLFDAQSFTYWGQGTQVTVSSGGGSQVQLQESGGGSVQAGGSLRLSCAASGYTYSSGCMGWFRQAPGKEREAVAAINSDGSTSYADSVKGRFTISKDNAKNTLYLQMNSLKPEDTAMYYCAAEPYCSGGYPRWSVAEFGYWGQGTQVTVSSASHHHHHH
B7: IL10R binding molecule of SEQ ID NO: 272 (bispecific antibody)
chain: QVQLQESGGGSVQAGGSLRLSCAASGYTYSMYCMGWFRQAPGKEREGVAQINSDGSTSYADSVKGRFTISKDNAKNTLYLQMNSLKPEDTAMYYCAADSRVYGGSWYERLCGPYTYEYNYWGQGTQVTVSSGGGSQVQLQESGGGSVQAGGSLRLSCAASRYTYNSYCMGWFRQAPGKEREGVATIDSDGMTRYADSVKGRFTISKDNAKNTLYLQMNSLKPEDTAMYYCAADADCTIAAMTTNPLGQGTQVTVSSASHHHHHH
B8: IL10R binding molecule of SEQ ID NO: 353 (bispecific antibody)
chain: QVQLQESGGGSVQTGGSLRLSCAASGYTYLRGCMGWFRQAPGKEREGVAVMDVVGDRRSYIDSVKGRFTISRDNAANSVYLQMDNLKPEDTAMYYCTAGPNCVGWRSGLDYWGQGTQVTVSSGGGSQVQLQESGGGSVQAGGSLRLSCAASGYSNCSYDMTWYRQAPGKEREFVSAIHSDGSTRYADSVKGRFFISQDNAKNTVYLQMNSLKPEDTAMYYCKTDPLHCRAHGGSWYSVRANYWGQGTQVTVSSASHHHHHH
B9: IL10R binding molecule of SEQ ID NO: 273 (bispecific antibody)
chain: QVQLQESGGGSVQAGGSLRLSCAASGYTYSMYCMGWFRQAPGKEREGVAQINSDGSTSYADSVKGRFTISKDNAKNTLYLQMNSLKPEDTAMYYCAADSRVYGGSWYERLCGPYTYEYNYWGQGTQVTVSSGGGSQVQLQESGGGSVQAGGSLRLSCTVSRYTASVNYMGWFRQAPGKEREGVATIFTGAGTTYYANSVKGRFTISRDNAKNTAYLQMNSLKPEDTAIYYCAVDFRGGLLYRPAYEYTYRGQGTQVTVSSASHHHHHH
B10: IL10R binding molecule of SEQ ID NO: 269 (bispecific antibody)
chain: QVQLQESGGGSVQAGGSLRLSCAASRFTYSSYCMGWFRQAPGKEREGVASIDSDGSTSYTDSVKGRFTISKDNAKNTLYLQMNSLKPEDTAMYYCALDLMSTVVPGFCGFLLSAGMDYWGKGTQVTVSSGGGSQVQLQESGGGSVQTGGSLRLSCAASGYTYLRGCMGWFRQAPGKEREGVAVMDVVGDRRSYIDSVKGRFTISRDNAANSVYLQMDNLKPEDTAMYYCTAGPNCVGWRSGLDYWGQGTQVTVSSASHHHHHH
B11: IL10R binding molecule of SEQ ID NO: 265 (bispecific antibody)
chain: QVQLQESGGGSVQAGGSLRLSCAASRFTYSSYCMGWFRQAPGKEREGVASIDSDGSTSYTDSVKGRFTISKDNAKNTLYLQMNSLKPEDTAMYYCALDLMSTVVPGFCGFLLSAGMDYWGKGTQVTVSSGGGSQVQLQESGGGSVQAGGSLRLSCAASRYTYNSYCMGWFRQAPGKEREGVATIDSDGMTRYADSVKGRFTISKDNAKNTLYLQMNSLKPEDTAMYYCAADADCTIAAMTTNPLGQGTQVTVSSASHHHHHH
B12: IL10R binding molecule of SEQ ID NO: 268 (bispecific antibody)
chain: QVQLQESGGGSVQAGGSLRLSCAASRFTYSSYCMGWFRQAPGKEREGVASIDSDGSTSYTDSVKGRFTISKDNAKNTLYLQMNSLKPEDTAMYYCALDLMSTVVPGFCGFLLSAGMDYWGKGTQVTVSSGGGSQVQLQESGGGSVQAGGSLRLSCAASGYSYSSYCMGWFRQAPGKEREGVATIDSDGMTRYADSVKGRFTISKDNAKNTLYLQMNSLKPEDTAMYYCAAPLYDCDSGAVGRNPPYWGQGTQVTVSSASHHHHHH
B13: IL10R binding molecule of SEQ ID NO: 264 (bispecific antibody)
chain: QVQLQESGGGSVQAGGSLRLSCAASRFTYSSYCMGWFRQAPGKEREGVASIDSDGSTSYTDSVKGRFTISKDNAKNTLYLQMNSLKPEDTAMYYCALDLMSTVVPGFCGFLLSAGMDYWGKGTQVTVSSGGGSQVQLQESGGGSVQAGGSLRLSCAASGYTYSSYCMGWFRQAPGKEREGVAHIDSDGSTSYADSVKGRFTISKDNAKNTLYLQMNSLKPEDTAMYYCAADPIPGPGYCDGGPNKYWGQGTQVTVSSASHHHHHH
B14: IL10R binding molecule of SEQ ID NO: 350 (bispecific antibody)
chain: QVQLQESGGGSVQTGGSLRLSCAASGYTYLRGCMGWFRQAPGKEREGVAVMDVVGDRRSYIDSVKGRFTISRDNAANSVYLQMDNLKPEDTAMYYCTAGPNCVGWRSGLDYWGQGTQVTVSSGGGSQVQLQESGGGSVQAGGSLRLSCAVSGYAYSTYCMGWFRQAPGKEREGVAAIDSGGSTSYADSVKGRFTISKDNAKNTLYLRMNSLKPEDTAMYYCAAVPPPPDGGSCLFLGPEIKVSKADFRYWGQGTQVTVSSASHHHHHH
B15: IL10R binding molecule of SEQ ID NO: 271 (bispecific antibody)
chain: QVQLQESGGGSVQAGGSLRLSCAASGYTYSMYCMGWFRQAPGKEREGVAQINSDGSTSYADSVKGRFTISKDNAKNTLYLQMNSLKPEDTAMYYCAADSRVYGGSWYERLCGPYTYEYNYWGQGTQVTVSSGGGSQVQLQESGGGSVQAGGSLRLSCAASGYTYSSYCMGWFRQAPGKEREGVAHIDSDGSTSYADSVKGRFTISKDNAKNTLYLQMNSLKPEDTAMYYCAADPIPGPGYCDGGPNKYWGQGTQVTVSSASHHHHHH

For this assay, the target named is T1, human IL-10 receptor (hIL-10R alpha and beta chains) on HEK-Blue IL-10 reporter cells (human, UniProt Q13651 22-578; Q08334 20-325).
T1 sequence 1: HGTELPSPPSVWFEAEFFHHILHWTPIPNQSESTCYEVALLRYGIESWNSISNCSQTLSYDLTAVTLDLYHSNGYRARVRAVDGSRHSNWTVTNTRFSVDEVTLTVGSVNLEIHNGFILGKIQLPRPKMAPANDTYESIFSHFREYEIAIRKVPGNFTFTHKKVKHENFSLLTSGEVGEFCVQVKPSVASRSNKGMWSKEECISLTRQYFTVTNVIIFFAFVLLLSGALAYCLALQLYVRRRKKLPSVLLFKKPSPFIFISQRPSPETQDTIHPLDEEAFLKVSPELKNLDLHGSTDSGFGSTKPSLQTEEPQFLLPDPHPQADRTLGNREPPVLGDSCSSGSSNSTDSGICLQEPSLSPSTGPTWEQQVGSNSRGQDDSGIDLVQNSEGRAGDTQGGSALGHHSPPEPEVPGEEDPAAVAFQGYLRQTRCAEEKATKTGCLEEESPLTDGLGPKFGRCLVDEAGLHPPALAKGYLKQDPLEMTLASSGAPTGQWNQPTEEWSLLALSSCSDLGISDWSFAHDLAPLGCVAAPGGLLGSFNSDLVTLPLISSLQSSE
T1 sequence 2: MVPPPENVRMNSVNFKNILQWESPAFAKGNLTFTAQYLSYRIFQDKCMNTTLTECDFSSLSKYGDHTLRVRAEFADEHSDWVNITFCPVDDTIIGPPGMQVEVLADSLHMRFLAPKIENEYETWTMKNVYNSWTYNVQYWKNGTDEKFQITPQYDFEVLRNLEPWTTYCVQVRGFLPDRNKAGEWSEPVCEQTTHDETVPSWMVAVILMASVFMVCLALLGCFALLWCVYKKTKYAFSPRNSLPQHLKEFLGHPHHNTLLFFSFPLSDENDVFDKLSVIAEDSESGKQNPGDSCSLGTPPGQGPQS
Description: cell-based or functional assay.
Consider B1, for which the “Abs 630 (25 nM)” value was 1.41 Abs 630 and the “Abs 630 (100 nM)” value came out at 0.73 Abs 630.

As to B2, the “Abs 630 (25 nM)” value was 0.54 Abs 630 and the “Abs 630 (100 nM)” value amounted to 0.65 Abs 630.

B3: the “Abs 630 (25 nM)” value was found to be 0.75 Abs 630 and the “Abs 630 (100 nM)” value came to 0.53 Abs 630.

For the molecule B4, the “Abs 630 (25 nM)” value is 0.43 Abs 630 and the “Abs 630 (100 nM)” value stood at 0.34 Abs 630.

As for B5, the “Abs 630 (25 nM)” value came out at 0.49 Abs 630 and the “Abs 630 (100 nM)” value is 0.39 Abs 630.

As for B6, the “Abs 630 (25 nM)” value turned out to be 0.49 Abs 630 and the “Abs 630 (100 nM)” value was determined as 0.39 Abs 630.

Take B7: the “Abs 630 (25 nM)” value was determined as 0.47 Abs 630 and the “Abs 630 (100 nM)” value was found to be 0.38 Abs 630.

Take B8: the “Abs 630 (25 nM)” value came out at 0.56 Abs 630 and the “Abs 630 (100 nM)” value stood at 0.61 Abs 630.

Turning to B9, the “Abs 630 (25 nM)” value stood at 0.52 Abs 630 and the “Abs 630 (100 nM)” value turned out to be 0.41 Abs 630.

In the case of B10, the “Abs 630 (25 nM)” value was 0.46 Abs 630 and the “Abs 630 (100 nM)” value turned out to be 0.37 Abs 630.

Take B11: the “Abs 630 (25 nM)” value was 0.54 Abs 630 and the “Abs 630 (100 nM)” value is 0.46 Abs 630.

As to B12, the “Abs 630 (25 nM)” value came out at 0.53 Abs 630 and the “Abs 630 (100 nM)” value was found to be 0.41 Abs 630.

For B13, the “Abs 630 (25 nM)” value was 1.52 Abs 630 and the “Abs 630 (100 nM)” value is 0.67 Abs 630.

For B14, the “Abs 630 (25 nM)” value was 0.43 Abs 630 and the “Abs 630 (100 nM)” value was determined as 0.35 Abs 630.

Consider B15, for which the “Abs 630 (25 nM)” value worked out at 1.93 Abs 630 and the “Abs 630 (100 nM)” value came out at 1.65 Abs 630.
